# Test results taken from PMC12102759.
# B1: NCOA2 peptide 1073-1088 (Nuclear receptor coactivator 2), 16-mer library wild type / NSP3 UBl1 (ORF1ab Nsp3a Ub1, residues 819-925) (parent)
# chain 1: PSDEGALLDQLYLALR
# chain 2: APTKVTFGDDTVIEVQGYKSVNITFELDERIDKVLNEKCSAYTVELGTEVNEFACVVADAVIKTLQPVSELLTPLGIDLDEWSMATYYLFDESGEFKLASHMYCSFY
# Variants of: B1
# Conditions: with NSP3 UBl1 (ORF1ab Nsp3a Ub1, residues 819-925); bait immobilised on MaxiSorp plates (10 µg), library pre-cleared on GST, 2 h binding at 4 °C, five washes; one round per day, days 1-4; value from days 2 and 3; keep out of graded; scale: average fractional NGS count over selection days 2 and 3
row,Variant,screen value
1,chain 1 PSDEGALLDQLYLALH [chain 1 R16H],0.000164
2,chain 1 PSDEGALLDQLYLALQ [chain 1 R16Q],0.00132
3,chain 1 PSDEGALLDQIYLALR [chain 1 L11I],0.000119
4,chain 1 PSDEGALLDQPYLALR [chain 1 L11P],0
5,chain 1 PSDEGALLDQKYLALR [chain 1 L11K],0
6,chain 1 PSDEGALLDQYYLALR [chain 1 L11Y],0
7,chain 1 PSDEGALLDQDYLALR [chain 1 L11D],0
8,chain 1 PSDEGALLDQVYLALR [chain 1 L11V],9.51e-06
9,chain 1 PSDEGALLDQRYLALR [chain 1 L11R],0
10,chain 1 PSDEGALLDQAYLALR [chain 1 L11A],0
11,chain 1 PSDEGLLLDQLYLALR [chain 1 A6L],2.33e-05
12,chain 1 PSDEGFLLDQLYLALR [chain 1 A6F],1.11e-05
13,chain 1 PSDEGMLLDQLYLALR [chain 1 A6M],1.23e-05
14,chain 1 PSDEGRLLDQLYLALR [chain 1 A6R],1.8e-05
15,chain 1 PSDEGKLLDQLYLALR [chain 1 A6K],0
16,chain 1 PSDEGALSDQLYLALR [chain 1 L8S],0
17,chain 1 PSDEGALEDQLYLALR [chain 1 L8E],0
18,chain 1 PSDEGALKDQLYLALR [chain 1 L8K],0
19,chain 1 PSDEGALNDQLYLALR [chain 1 L8N],0
20,chain 1 PSDEGALADQLYLALR [chain 1 L8A],0
21,chain 1 PSDEGALQDQLYLALR [chain 1 L8Q],0
22,chain 1 PSDEGALHDQLYLALR [chain 1 L8H],0
23,chain 1 PSDEGALLDQLYSALR [chain 1 L13S],0
24,chain 1 PSDEGALLDQLYEALR [chain 1 L13E],0

row,Variant,screen value
1,chain 1 PSNEGALLDQLYLALR [chain 1 D3N],1.14e-05
2,chain 1 PSEEGALLDQLYLALR [chain 1 D3E],7.04e-06
3,chain 1 PSDFGALLDQLYLALR [chain 1 E4F],0
4,chain 1 PSDPGALLDQLYLALR [chain 1 E4P],0
5,chain 1 PSDETALLDQLYLALR [chain 1 G5T],0
6,chain 1 PSDEAALLDQLYLALR [chain 1 G5A],5.46e-06
7,chain 1 PSDENALLDQLYLALR [chain 1 G5N],0
8,chain 1 PSDEIALLDQLYLALR [chain 1 G5I],4.53e-05
9,chain 1 PSDESALLDQLYLALR [chain 1 G5S],1.04e-05
10,chain 1 PSDEGALLDQLYLRLR [chain 1 A14R],6.24e-06
11,chain 1 PSDEGALLDQLYLDLR [chain 1 A14D],0
12,chain 1 PSDEGALLDQLYLQLR [chain 1 A14Q],0
13,chain 1 PSDEGALLDQLYLYLR [chain 1 A14Y],0
14,chain 1 PSDEGALLDQLYLILR [chain 1 A14I],0
15,chain 1 PIDEGALLDQLYLALR [chain 1 S2I],0
16,chain 1 PEDEGALLDQLYLALR [chain 1 S2E],0
17,chain 1 PADEGALLDQLYLALR [chain 1 S2A],1.93e-05
18,chain 1 PFDEGALLDQLYLALR [chain 1 S2F],4.76e-06
19,chain 1 PVDEGALLDQLYLALR [chain 1 S2V],8.33e-06
20,chain 1 PGDEGALLDQLYLALR [chain 1 S2G],1.09e-05
21,chain 1 PMDEGALLDQLYLALR [chain 1 S2M],8.73e-06
22,chain 1 PLDEGALLDQLYLALR [chain 1 S2L],1.56e-05
23,chain 1 PHDEGALLDQLYLALR [chain 1 S2H],1.09e-05
24,chain 1 PQDEGALLDQLYLALR [chain 1 S2Q],0.000342
